{"source": "patent US20060165682A1", "about": "(Janssen / Centocor, published 2006)", "binders": {"B1": {"name": "mouse 15C11 antibody (antibody, V domains shown)", "VH": "EVKLVESGGGLVQPGGSLKLSCAASGFTFSRYSMSWVRQTPEKRLELVAKISNSGDNTYYPDTLKGRFTISRDNAQNTLYLQMSSLKSEDTAMYYCASGDYWGQGTTLTVSS", "VL": "DVVMTQTPLSLPVSLGDQASISCRSSQSLVHSDGNTYLHWYLQKPGQSPKLLIYKVSNRFSGVPDRFSGSGSGTDFTLKISRVEAEDLGVYFCSQSTHVWTFGGGTKLEIK", "notes": "Mouse monoclonal antibody from a hybridoma; The claims number the mature chains 1-111 and 1-112; also called mouse antibody 15C11"}}, "assay_in_all_cases": "epitope map assay, OD on overlapping 10-mer peptides", "key": {"VKMDAEFRHD": {"target": "T1, VKMDAEFRHD", "T1 construct": "APP flank + Aβ 1-7", "T1 peptide": "VKMDAEFRHD"}, "AEDVGSNKGA": {"target": "T2, AEDVGSNKGA", "T2 construct": "Aβ 21-30", "T2 peptide": "AEDVGSNKGA"}, "EFRHDSGYEV": {"target": "T3, EFRHDSGYEV", "T3 construct": "Aβ 3-12", "T3 peptide": "EFRHDSGYEV"}, "DAEFRHDSGY": {"target": "T4, DAEFRHDSGY", "T4 construct": "Aβ 1-10", "T4 peptide": "DAEFRHDSGY"}, "EVKMDAEFRH": {"target": "T5, EVKMDAEFRH", "T5 construct": "APP flank + Aβ 1-6", "T5 peptide": "EVKMDAEFRH"}, "DVGSNKGAII": {"target": "T6, DVGSNKGAII", "T6 construct": "Aβ 23-32", "T6 peptide": "DVGSNKGAII"}, "EEISEVKMDA": {"target": "T7, EEISEVKMDA", "T7 construct": "APP flank + Aβ 1-2", "T7 peptide": "EEISEVKMDA"}, "SEVKMDAEFR": {"target": "T8, SEVKMDAEFR", "T8 construct": "APP flank + Aβ 1-5", "T8 peptide": "SEVKMDAEFR"}, "YEVHHQKLVF": {"target": "T9, YEVHHQKLVF", "T9 construct": "Aβ 10-19", "T9 peptide": "YEVHHQKLVF"}, "LMVGGVVIAT": {"target": "T10, LMVGGVVIAT", "T10 construct": "Aβ 34-43", "T10 peptide": "LMVGGVVIAT"}, "SNKGAIIGLM": {"target": "T11, SNKGAIIGLM", "T11 construct": "Aβ 26-35", "T11 peptide": "SNKGAIIGLM"}, "VGSNKGAIIG": {"target": "T12, VGSNKGAIIG", "T12 construct": "Aβ 24-33; this label stands at two neighbouring bars", "T12 peptide": "VGSNKGAIIG"}, "HHQKLVFFAE": {"target": "T13, HHQKLVFFAE", "T13 construct": "Aβ 13-22", "T13 peptide": "HHQKLVFFAE"}, "LVFFAEDVGS": {"target": "T14, LVFFAEDVGS", "T14 construct": "Aβ 17-26", "T14 peptide": "LVFFAEDVGS"}, "DSGYEVHHQK": {"target": "T15, DSGYEVHHQK", "T15 construct": "Aβ 7-16", "T15 peptide": "DSGYEVHHQK"}, "HDSGYEVHHQ": {"target": "T16, HDSGYEVHHQ", "T16 construct": "Aβ 6-15", "T16 peptide": "HDSGYEVHHQ"}, "QKLVFFAEDV": {"target": "T17, QKLVFFAEDV", "T17 construct": "Aβ 15-24", "T17 peptide": "QKLVFFAEDV"}, "KGAIIGLMVG": {"target": "T18, KGAIIGLMVG", "T18 construct": "Aβ 28-37", "T18 peptide": "KGAIIGLMVG"}, "RHDSGYEVHH": {"target": "T19, RHDSGYEVHH", "T19 construct": "Aβ 5-14", "T19 peptide": "RHDSGYEVHH"}, "AEFRHDSGYE": {"target": "T20, AEFRHDSGYE", "T20 construct": "Aβ 2-11", "T20 peptide": "AEFRHDSGYE"}, "FAEDVGSNKG": {"target": "T21, FAEDVGSNKG", "T21 construct": "Aβ 20-29", "T21 peptide": "FAEDVGSNKG"}, "MVGGVVIATV": {"target": "T22, MVGGVVIATV", "T22 construct": "Aβ 35-43 + one further APP residue", "T22 peptide": "MVGGVVIATV"}, "NKGAIIGLMV": {"target": "T23, NKGAIIGLMV", "T23 construct": "Aβ 27-36", "T23 peptide": "NKGAIIGLMV"}, "GSNKGAIIGL": {"target": "T24, GSNKGAIIGL", "T24 construct": "Aβ 25-34", "T24 peptide": "GSNKGAIIGL"}, "FRHDSGYEVH": {"target": "T25, FRHDSGYEVH", "T25 construct": "Aβ 4-13", "T25 peptide": "FRHDSGYEVH"}, "KMDAEFRHDS": {"target": "T26, KMDAEFRHDS", "T26 construct": "APP flank + Aβ 1-8", "T26 peptide": "KMDAEFRHDS"}, "GYEVHHQKLV": {"target": "T27, GYEVHHQKLV", "T27 construct": "Aβ 9-18", "T27 peptide": "GYEVHHQKLV"}, "HQKLVFFAED": {"target": "T28, HQKLVFFAED", "T28 construct": "Aβ 14-23", "T28 peptide": "HQKLVFFAED"}, "IGLMVGGVVI": {"target": "T29, IGLMVGGVVI", "T29 construct": "Aβ 32-41", "T29 peptide": "IGLMVGGVVI"}, "EISEVKMDAE": {"target": "T30, EISEVKMDAE", "T30 construct": "APP flank + Aβ 1-3", "T30 peptide": "EISEVKMDAE"}, "ISEVKMDAEF": {"target": "T31, ISEVKMDAEF", "T31 construct": "APP flank + Aβ 1-4", "T31 peptide": "ISEVKMDAEF"}, "KLVFFAEDVG": {"target": "T32, KLVFFAEDVG", "T32 construct": "Aβ 16-25", "T32 peptide": "KLVFFAEDVG"}, "FFAEDVGSNK": {"target": "T33, FFAEDVGSNK", "T33 construct": "Aβ 19-28", "T33 peptide": "FFAEDVGSNK"}, "EVHHQKLVFF": {"target": "T34, EVHHQKLVFF", "T34 construct": "Aβ 11-20", "T34 peptide": "EVHHQKLVFF"}, "IIGLMVGGVV": {"target": "T35, IIGLMVGGVV", "T35 construct": "Aβ 31-40", "T35 peptide": "IIGLMVGGVV"}, "EDVGSNKGAI": {"target": "T36, EDVGSNKGAI", "T36 construct": "Aβ 22-31", "T36 peptide": "EDVGSNKGAI"}, "GAIIGLMVGG": {"target": "T37, GAIIGLMVGG", "T37 construct": "Aβ 29-38", "T37 peptide": "GAIIGLMVGG"}, "SGYEVHHQKL": {"target": "T38, SGYEVHHQKL", "T38 construct": "Aβ 8-17", "T38 peptide": "SGYEVHHQKL"}, "GLMVGGVVIA": {"target": "T39, GLMVGGVVIA", "T39 construct": "Aβ 33-42", "T39 peptide": "GLMVGGVVIA"}, "AIIGLMVGGV": {"target": "T40, AIIGLMVGGV", "T40 construct": "Aβ 30-39", "T40 peptide": "AIIGLMVGGV"}, "MDAEFRHDSG": {"target": "T41, MDAEFRHDSG", "T41 construct": "APP flank + Aβ 1-9", "T41 peptide": "MDAEFRHDSG"}, "VFFAEDVGSN": {"target": "T42, VFFAEDVGSN", "T42 construct": "Aβ 18-27", "T42 peptide": "VFFAEDVGSN"}}, "data": [{"binder": "B1", "values": [{"measurement": "binding result", "setting": "VKMDAEFRHD", "result": "no binding"}, {"measurement": "binding result", "setting": "AEDVGSNKGA", "result": "no binding"}, {"measurement": "binding result", "setting": "EFRHDSGYEV", "result": "no binding"}, {"measurement": "binding result", "setting": "DAEFRHDSGY", "result": "no binding"}, {"measurement": "binding result", "setting": "EVKMDAEFRH", "result": "no binding"}, {"measurement": "binding result", "setting": "DVGSNKGAII", "result": "no binding"}, {"measurement": "binding result", "setting": "EEISEVKMDA", "result": "no binding"}, {"measurement": "binding result", "setting": "SEVKMDAEFR", "result": "no binding"}, {"measurement": "binding result", "setting": "YEVHHQKLVF", "result": "no binding"}, {"measurement": "binding result", "setting": "LMVGGVVIAT", "result": "no binding"}, {"measurement": "binding result", "setting": "SNKGAIIGLM", "result": "no binding"}, {"measurement": "binding result", "setting": "VGSNKGAIIG", "result": "no binding"}, {"measurement": "binding result", "setting": "HHQKLVFFAE", "result": "binds"}, {"measurement": "binding result", "setting": "LVFFAEDVGS", "result": "binds"}, {"measurement": "binding result", "setting": "DSGYEVHHQK", "result": "no binding"}, {"measurement": "binding result", "setting": "HDSGYEVHHQ", "result": "no binding"}, {"measurement": "binding result", "setting": "QKLVFFAEDV", "result": "binds"}, {"measurement": "binding result", "setting": "KGAIIGLMVG", "result": "no binding"}, {"measurement": "binding result", "setting": "RHDSGYEVHH", "result": "no binding"}, {"measurement": "binding result", "setting": "AEFRHDSGYE", "result": "no binding"}, {"measurement": "binding result", "setting": "FAEDVGSNKG", "result": "no binding"}, {"measurement": "binding result", "setting": "MVGGVVIATV", "result": "no binding"}, {"measurement": "binding result", "setting": "NKGAIIGLMV", "result": "no binding"}, {"measurement": "binding result", "setting": "GSNKGAIIGL", "result": "no binding"}, {"measurement": "binding result", "setting": "FRHDSGYEVH", "result": "no binding"}, {"measurement": "binding result", "setting": "KMDAEFRHDS", "result": "no binding"}, {"measurement": "binding result", "setting": "GYEVHHQKLV", "result": "no binding"}, {"measurement": "binding result", "setting": "HQKLVFFAED", "result": "binds"}, {"measurement": "binding result", "setting": "IGLMVGGVVI", "result": "no binding"}, {"measurement": "binding result", "setting": "EISEVKMDAE", "result": "no binding"}, {"measurement": "binding result", "setting": "ISEVKMDAEF", "result": "no binding"}, {"measurement": "binding result", "setting": "KLVFFAEDVG", "result": "binds"}, {"measurement": "binding result", "setting": "FFAEDVGSNK", "result": "binds"}, {"measurement": "binding result", "setting": "EVHHQKLVFF", "result": "no binding"}, {"measurement": "binding result", "setting": "IIGLMVGGVV", "result": "no binding"}, {"measurement": "binding result", "setting": "EDVGSNKGAI", "result": "no binding"}, {"measurement": "binding result", "setting": "GAIIGLMVGG", "result": "no binding"}, {"measurement": "binding result", "setting": "SGYEVHHQKL", "result": "no binding"}, {"measurement": "binding result", "setting": "GLMVGGVVIA", "result": "no binding"}, {"measurement": "binding result", "setting": "AIIGLMVGGV", "result": "no binding"}, {"measurement": "binding result", "setting": "MDAEFRHDSG", "result": "no binding"}, {"measurement": "binding result", "setting": "VFFAEDVGSN", "result": "binds"}]}]}
